Target: type I interferon receptor (IFNAR1 and IFNAR2) on cells (human) (UniProt P17181)
Experiment: cell-based or functional assay

Chain of type I interferon receptor (IFNAR1 and IFNAR2) on cells (human) (P17181 28-557, chain 1 of 2): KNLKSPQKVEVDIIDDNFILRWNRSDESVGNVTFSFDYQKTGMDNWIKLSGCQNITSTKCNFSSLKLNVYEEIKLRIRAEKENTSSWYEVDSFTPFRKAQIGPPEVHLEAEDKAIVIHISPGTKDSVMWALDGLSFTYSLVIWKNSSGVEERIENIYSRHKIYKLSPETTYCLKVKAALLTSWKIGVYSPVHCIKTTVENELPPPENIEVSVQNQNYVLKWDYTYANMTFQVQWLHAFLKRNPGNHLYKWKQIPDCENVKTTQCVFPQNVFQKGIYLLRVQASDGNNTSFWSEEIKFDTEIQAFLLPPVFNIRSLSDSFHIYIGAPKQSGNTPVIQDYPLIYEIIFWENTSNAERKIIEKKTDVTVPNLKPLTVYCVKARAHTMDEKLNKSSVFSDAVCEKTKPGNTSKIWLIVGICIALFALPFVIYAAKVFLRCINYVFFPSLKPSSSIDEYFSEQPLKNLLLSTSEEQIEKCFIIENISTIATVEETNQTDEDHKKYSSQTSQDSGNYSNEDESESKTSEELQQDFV
Chain of type I interferon receptor (IFNAR1 and IFNAR2) on cells (human) (P48551 27-515, chain 2 of 2, further chain): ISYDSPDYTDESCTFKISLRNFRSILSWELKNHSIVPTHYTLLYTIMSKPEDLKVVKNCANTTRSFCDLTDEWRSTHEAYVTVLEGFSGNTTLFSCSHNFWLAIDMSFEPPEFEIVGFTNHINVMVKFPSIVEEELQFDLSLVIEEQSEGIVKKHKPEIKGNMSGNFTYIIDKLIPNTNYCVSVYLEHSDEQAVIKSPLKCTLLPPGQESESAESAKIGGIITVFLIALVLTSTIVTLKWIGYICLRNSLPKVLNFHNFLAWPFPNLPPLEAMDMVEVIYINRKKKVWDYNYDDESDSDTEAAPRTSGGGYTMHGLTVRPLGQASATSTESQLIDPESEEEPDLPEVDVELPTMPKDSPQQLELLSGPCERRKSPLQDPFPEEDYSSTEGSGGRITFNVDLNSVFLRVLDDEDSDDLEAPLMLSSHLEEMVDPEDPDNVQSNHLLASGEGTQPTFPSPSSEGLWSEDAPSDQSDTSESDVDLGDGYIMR

How did the EC50 Off Target (pM) iLite turn out when “human interferon-β1 (IFNβ), free wild type (from UniProt P01574 22-187) (ligand)” was run?
The EC50 Off Target (pM) iLite was 0.799 pM.

And the EC50 On Target (PM) ARP-1?
The EC50 On Target (PM) ARP-1 was 10.5 pM.
